The values that follow come from patent US20220112285A1 (UNIVERSITY OF BIRMINGHAM, published 2022).

Data set [1] deals with the molecule itself. Briefly: X-ray crystal structure; dimer believed to result from binding of the heparin oligosaccharide DP12. On the procedure:
The preformed G6b-B:Fab complex at 12 mg/ml, in a buffer solution of 20 mM HEPES, 75 mM NaCl, pH 7.1 was incubated for 1 hour at 4° C. with 2 mM DP12 (Iduron Cat. No. HO12). This protein sample was then microfuged at 16,000 g, for 10 minutes at 4° C., before drops were set up using 150 nl sample and 100 nl reservoir solution. Reservoir conditions were 50 mM MES pH6.2, 10% PEG 550MME, 5% glycerol, and 50 mM CaCl₂. Crystallisation plates were incubated at 20° C. and flat plate crystals appeared within 3 days. The crystal was harvested straight out of the growth drop into liquid nitrogen. Diffraction data were collected at 100K on beamline 103 at Diamond Light Source and processed by XDS1 and Aimless2 via AutoPROC3. The crystal had the space group C2 with the cell dimensions of a=183.80, b=72.34, c=131.04, alpha=90.0°, beta=124.52°, gamma=90.0°, and gave a 97% complete dataset to 3.1 Å.

Data set [2] has as its target T1, recombinant monomeric human G6b-B (human, UniProt O95866 18-142, limits assumed).
T1 construct: also called G6b-B monomer; monomeric G6b-B
T1 sequence (looked up): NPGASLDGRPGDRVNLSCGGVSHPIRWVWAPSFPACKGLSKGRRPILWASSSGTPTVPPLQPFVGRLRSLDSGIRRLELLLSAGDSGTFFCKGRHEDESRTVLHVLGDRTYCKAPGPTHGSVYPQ
Briefly: Fab as analyte over a G6b-B monomer channel (RU read-out; method not named), two stage reaction model.

For data set [3], the target named is T2, recombinant dimeric human G6b-B (human, UniProt O95866 18-142, limits assumed).
T2 construct: also called G6b-B dimer; dimeric G6b-B
T2 sequence (looked up): T1 sequence (looked up)
As to the kind of experiment: Fab as analyte over a G6b-B dimer channel (RU read-out; method not named), two stage reaction model.

The target in data set [4] is T3, mouse G6b-B (mouse, UniProt D7PDD4 18-140, limits assumed).
T3 construct: construct not described
T3 sequence (looked up): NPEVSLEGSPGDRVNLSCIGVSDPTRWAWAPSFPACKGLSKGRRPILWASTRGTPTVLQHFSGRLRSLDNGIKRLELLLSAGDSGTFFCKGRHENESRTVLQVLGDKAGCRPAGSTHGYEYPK
As to the kind of experiment: plate binding assay (coated protein, HRP anti-mouse IgG, TMB, A450), FIG. 8. How it is done: FIG. 8—illustrates that the 17-4 antibody robustly binds to recombinant monomeric and dimeric human G6b-B, but not to mouse G6b-B in an in vitro binding assay. Wells of 96-well plate were coated with the indicated proteins overnight. Following blocking, wells were incubated with the indicated anti-G6b monoclonal antibodies (10 μg/ml) or IgG control. Antibody binding was detected with HRP-conjugated anti-mouse antibody and 3,3,5,5-tetramethylbenzidine (TMB) substrate; absorbance was measured with a plate reader at 450 nm.
Wells of 96-well Nunc MaxiSorp™ plates (Thermo Scientific) were coated overnight with 50 μl of indicated proteins, diluted in PBS at a concentration of 5 μg/ml. Plates were washed three times with Tris buffered saline (TBS) containing 0.1% Tween 20 (TBS-T) and blocked for 1.5 h at 37° C. with 2% fat free milk in TBS, 0.02% Tween 20. After one washing step, wells were incubated with the indicated anti-G6b monoclonal antibodies (10 μg/ml) or IgG control, diluted in 3% BSA in TBS-T for 1.5 h at RT. After five washing steps, wells were incubated with HRP-conjugated anti-mouse IgG antibody (Sigma) for 1 h at RT at low agitation. Plates were washed seven times and signals were developed with TMB. The reaction was stopped by addition of 2 M H₂SO₄ (50 μl/well) and absorbance at 450 nm and 570 nm (background) was measured with a Versa max plate reader (Molecular Devices).

B1: G6b-B ECD (18-133, [N32D, S67A, S68A, S69A, T71A]) (receptor, human, UniProt O95866 18-133, looked up)
chain: NPGASLDGRPGDRVDLSCGGVSHPIRWVWAPSFPACKGLSKGRRPILWAAAAGAPTVPPLQPFVGRLRSLDSGIRRLELLLSAGDSGTFFCKGRHEDESRTVLHVLGDRTYCKAPG
notes: Expressed in HEK293 6E cells and used for the crystal structure with the 17-4 Fab and the heparin oligosaccharide DP12; also called G6b ECD; G6b-ECD
Consider B1, for which the binding result in data set [1] is reported as “binds”.

B2: His-tagged recombinant anti-G6b-B Fab fragment of antibody 17-4 (Fab, V domains shown)
VH: EVQLQQSGAELVKPGASVKLSCTASGFNIKETYIHWVKQRPEQGLEWIGRIDPADVYGRYDPKFQGKATITADTSSNSAYLQVSSLTSEDTAVYYCARSYGSSYGIDYWGQGTSVTVSS
VL: DIQMTQTTSSLSASLGDRVTISCRASQDISNYLNWYQQKPDGTVKLLIYYTSTLHSGVPSRFSGSGSGTDYSLTISNLEQEDVATYFCQQGYTLPWTFGGGTKLEIKR
notes: also called 17-4 Fab; 17-4 Fabs
Consider B2, for which the results for the Kd in data set [2] and in data set [3] were 0.126 nM and 0.262 nM, respectively.

B3: anti-G6b mouse monoclonal antibody 17-4 (antibody, mouse IgG1, kappa, V domains shown)
VH: B2 VH
VL: B2 VL
notes: The entries may include leader peptides, since VH CDR2 residues are numbered 69 and 71; no cleavage site is stated; also called exemplary antibody 17-4; mAb 17-4
In the case of B3, the binding result in data set [4] is given as “no binding (tested: 10 µg/ml)”.

The Kd is a measure of binding affinity in units of concentration.
